Reference: paper PMC11044963, “Probing the CRL4^DCAF12 interactions with MAGEA3 and CCT5 di-Glu C-terminal degrons” (PNAS Nexus, 2024)
Where no end group is shown, it is not given here. The star is where a group is joined. FITC = O=C1OC2(c3ccc(O)cc3Oc3cc(O)ccc32)c2ccc(NC(=S)*)cc21

Columns and labels:
Settings in all cases: both partners purified
[1] = biological target: T1, biotinylated DCAF12 (Δ1–78) (human, UniProt Q5T6F0 79-453, biotin); test: SPR; biotinylated DCAF12 (Δ1–78) immobilised (~3,200 RU) on a streptavidin chip, Biacore 8K+; peptides injected, 8-point two-fold series from 1 µM; 10 mM HEPES pH 7.4, 150 mM NaCl, 3 mM EDTA, 0.005% P20, 5% glycerol, 2% DMSO; 15 °C; 1:1 Langmuir fit
T1 construct: DDB1- and CUL4-associated factor 12 (DCAF12), human, residues 79-453 (Δ1-78); also called DCAF12:79-453aa; DCAF12 Δ1–78 (pFBD-BirA); source: Sf9 (pFBD-BirA vector), purified (TALON beads, Superdex S200 26/60)

DCAF12 (Δ1–78) = biological target: T2, DCAF12 (Δ1–78) (human, UniProt Q5T6F0 79-453); test: fluorescence polarisation; direct binding; protein titrated from 4 µM in two-fold steps against 20 nM FITC peptide; 20 mM Tris pH 7.5, 150 mM NaCl, 5% glycerol, 0.5 mM TCEP, 0.01% Triton; 45 min at room temperature
T2 construct: DDB1- and CUL4-associated factor 12 (DCAF12), human, residues 79-453 (Δ1-78); also called DCAF12:79-453aa; N-terminally truncated DCAF12; source: Sf9 (baculovirus, pFBOH-MHL), purified (TALON beads, Superdex S200 26/60)

DDB1–DCAF12 complex = DDB1–DCAF12 complex (human, UniProt Q5T6F0 1-453; Q5T6F0 1-453); test: as above

B1: unlabeled MAGEA3 C-terminal degron peptide (peptide)
peptide: LHEWVLREGEE
notes: 11 C-terminal residues of melanoma-associated antigen 3 (MAGEA3); also called MAGEA3 peptide
Kd [1]: 161 nM

B2: unlabeled CCT5 C-terminal degron peptide (peptide)
peptide: IRKPGESEE
notes: nine C-terminal residues of T-complex protein 1 subunit epsilon (CCT5); also called CCT5 peptide
Kd [1]: 60 nM

B3: FITC-labeled MAGEA3 C-terminal degron peptide (peptide)
peptide: {FITC}-LHEWVLREGEE
notes: as for B1
Kd (DCAF12 (Δ1–78)): 520 nM | Kd (DDB1–DCAF12 complex): 180 nM

B4: FITC-labeled CCT5 C-terminal degron peptide (peptide)
peptide: {FITC}-IRKPGESEE
notes: as for B2
Kd (DCAF12 (Δ1–78)): 370 nM | Kd (DDB1–DCAF12 complex): 80 nM
